The results in this text go back to US20220281997A1 (published 2022).

Common to all, as to assay: SPR
For orientation: Surface plasmon resonance follows binding to a sensor surface in real time, without labels.

For test [1], the target named is AS675 VHH.
Test [2] deals with AS656 VHH.
Test [3] deals with AS519 VHH.
For test [4], the target named is AS325 VHH.
The target of test [5] is AS200 VHH.
In test [6] the target is AS588 VHH.
Test [7] addresses AS154 VHH.
Test [8] deals with AS988 VHH.
Test [9] deals with His-tag camel-derived nanobody AS718 VHH-His.
Sequence of His-tag camel-derived nanobody AS718 VHH-His (VHH, as listed by the source): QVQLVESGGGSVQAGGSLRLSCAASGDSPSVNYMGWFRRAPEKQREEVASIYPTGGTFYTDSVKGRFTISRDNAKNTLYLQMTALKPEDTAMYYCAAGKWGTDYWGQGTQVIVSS
For test [10], the target named is AS673 VHH.
Sequence of AS673 VHH (VHH, as listed by the source): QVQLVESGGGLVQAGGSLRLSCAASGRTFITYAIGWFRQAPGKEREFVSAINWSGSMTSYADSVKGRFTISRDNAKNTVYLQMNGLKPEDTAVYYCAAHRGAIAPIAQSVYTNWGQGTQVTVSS

Sequence of AS656 VHH (VHH, as listed by the source): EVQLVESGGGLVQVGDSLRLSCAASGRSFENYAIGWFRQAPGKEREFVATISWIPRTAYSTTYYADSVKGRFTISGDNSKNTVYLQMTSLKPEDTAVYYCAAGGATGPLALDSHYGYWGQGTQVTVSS
Sequence of AS988 VHH (VHH, as listed by the source): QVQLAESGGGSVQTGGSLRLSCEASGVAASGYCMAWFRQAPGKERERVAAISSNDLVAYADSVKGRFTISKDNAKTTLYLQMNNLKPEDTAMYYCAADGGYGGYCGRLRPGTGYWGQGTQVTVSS
Sequence of AS200 VHH (VHH, as listed by the source): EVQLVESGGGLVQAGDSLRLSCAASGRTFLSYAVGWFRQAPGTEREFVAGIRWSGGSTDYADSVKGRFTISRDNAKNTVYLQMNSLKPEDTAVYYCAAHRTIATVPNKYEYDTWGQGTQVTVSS
Sequence of AS588 VHH (VHH, as listed by the source): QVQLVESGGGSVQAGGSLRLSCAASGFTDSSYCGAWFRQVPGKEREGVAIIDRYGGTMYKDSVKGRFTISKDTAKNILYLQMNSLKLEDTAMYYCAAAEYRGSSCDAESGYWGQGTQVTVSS
Sequence of AS675 VHH (VHH, as listed by the source): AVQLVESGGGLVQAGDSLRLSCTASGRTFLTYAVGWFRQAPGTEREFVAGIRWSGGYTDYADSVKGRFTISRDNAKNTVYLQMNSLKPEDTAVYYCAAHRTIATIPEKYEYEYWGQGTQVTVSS
Sequence of AS325 VHH (VHH, as listed by the source): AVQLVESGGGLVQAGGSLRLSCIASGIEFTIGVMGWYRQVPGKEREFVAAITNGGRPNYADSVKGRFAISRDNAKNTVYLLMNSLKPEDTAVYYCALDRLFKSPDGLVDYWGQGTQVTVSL
Sequence of AS154 VHH (VHH, as listed by the source): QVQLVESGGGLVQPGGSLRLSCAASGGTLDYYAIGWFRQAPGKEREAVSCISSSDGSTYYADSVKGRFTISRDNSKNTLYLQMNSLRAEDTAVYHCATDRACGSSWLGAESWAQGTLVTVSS
Sequence of AS519 VHH (VHH, as listed by the source): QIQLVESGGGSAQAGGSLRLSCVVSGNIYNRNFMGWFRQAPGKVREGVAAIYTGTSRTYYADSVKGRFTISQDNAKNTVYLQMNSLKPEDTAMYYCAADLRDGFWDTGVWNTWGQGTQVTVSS

B1: R166.C5 (antibody, V domains shown)
VH: QSVEESGGRLVTPGTPLTLTCTVSGFSLRNFAMSWVRQAPGKGLEWIGIIYSGGTRDYATWAKGRFTISKTSTTVDLKMTSPTTEDTATYFCARDRSPDYSAAFLLWGQGTLVTVSS
VL: IVMTQTPSSKSVPVGDTVTINCQASESVYSNNHLAWFQQKPGQPPKLLIYSASTLESGVPSRFKGSGSGTQFTLTISGVQCDDAATYYCAGYKSSDTDGTSFGGGTEVVVKG
As to B1, the Kd in test [1] is 34.5 pM; in [2], 1.34 pM; in [3], 1.66 pM; in [4] it was 4.04 pM; in test [5], 11.8 pM; in [6] it was 7.09 pM. For the same molecule, the Kd was found to be 402 pM in test [7], 7.08 pM in test [8], 3.47 pM in [9] and 4.36 pM in test [10].

The term Kd denotes the constant that tells how readily two partners part at equilibrium. A higher Kd goes with weaker binding.
